Results: publication doi:10.1101/2024.06.04.597308

Target: 3β-OH-Δ5-6-cholesterol-5β-reductase (5βChR) from Limosilactobacillus fermentum NKN51 (Limosilactobacillus fermentum NKN51)
Assay: SEC

stoichiometry N: 2
Substance: 3β-OH-Δ5-6-cholesterol-5β-reductase (5βChR) from Limosilactobacillus fermentum NKN51 (enzyme)
